Source: patent US20130171163A1 (published 2013)

B1: VEGFR3 (receptor, human, UniProt P35916 25-1363, looked up)
chain: YSMTPPTLNITEESHVIDTGDSLSISCRGQHPLEWAWPGAQEAPATGDKDSEDTGVVRDCEGTDARPYCKVLLLHEVHANDTGSYVCYYKYIKARIEGTTAASSYVFVRDFEQPFINKPDTLLVNRKDAMWVPCLVSIPGLNVTLRSQSSVLWPDGQEVVWDDRRGMLVSTPLLHDALYLQCETTWGDQDFLSNPFLVHITGNELYDIQLLPRKSLELLVGEKLVLNCTVWAEFNSGVTFDWDYPGKQAERGKWVPERRSQQTHTELSSILTIHNVSQHDLGSYVCKANNGIQRFRESTEVIVHENPFISVEWLKGPILEATAGDELVKLPVKLAAYPPPEFQWYKDGKALSGRHSPHALVLKEVTEASTGTYTLALWNSAAGLRRNISLELVVNVPPQIHEKEASSPSIYSRHSRQALTCTAYGVPLPLSIQWHWRPWTPCKMFAQRSLRRRQQQDLMPQCRDWRAVTTQDAVNPIESLDTWTEFVEGKNKTVSKLVIQNANVSAMYKCVVSNKVGQDERLIYFYVTTIPDGFTIESKPSEELLEGQPVLLSCQADSYKYEHLRWYRLNLSTLHDAHGNPLLLDCKNVHLFATPLAASLEEVAPGARHATLSLSIPRVAPEHEGHYVCEVQDRRSHDKHCHKKYLSVQALEAPRLTQNLTDLLVNVSDSLEMQCLVAGAHAPSIVWYKDERLLEEKSGVDLADSNQKLSIQRVREEDAGRYLCSVCNAKGCVNSSASVAVEGSEDKGSMEIVILVGTGVIAVFFWVLLLLIFCNMRRPAHADIKTGYLSIIMDPGEVPLEEQCEYLSYDASQWEFPRERLHLGRVLGYGAFGKVVEASAFGIHKGSSCDTVAVKMLKEGATASEHRALMSELKILIHIGNHLNVVNLLGACTKPQGPLMVIVEFCKYGNLSNFLRAKRDAFSPCAEKSPEQRGRFRAMVELARLDRRRPGSSDRVLFARFSKTEGGARRASPDQEAEDLWLSPLTMEDLVCYSFQVARGMEFLASRKCIHRDLAARNILLSESDVVKICDFGLARDIYKDPDYVRKGSARLPLKWMAPESIFDKVYTTQSDVWSFGVLLWEIFSLGASPYPGVQINEEFCQRLRDGTRMRAPELATPAIRRIMLNCWSGDPKARPAFSELVEILGDLLQGRGLQEEEEVCMAPRSSQSSEEGSFSQVSTMALHIAQADAEDSPPSLQRHSLAARYYNWVSFPGCLARGAETRGSSRMKTFEEFPMTPTTYKGSVDNQTDSGMVLASEEFEQIESRHRQESGFSCKGPGQNVAVTRAHPDSQGRRRRPERGARGGQVFYNSEYGELSEPSEEDHCSPSARVTFFTDNSY
notes: Endogenous protein in HUVEC lysates, with or without VEGF treatment (20 ng/ml, 10 min)

How the values were obtained:
[1] = molecular target: T1, leukocyte antigen-related protein tyrosine phosphatase (LAR) (human, UniProt P10586 30-1907, limits assumed); test: co-immunoprecipitation from HUVEC lysates with anti-cLAR antibody, Western blot with anti-VEGFR3
T1 construct: Endogenous protein in HUVEC lysates; The background section describes LAR as a non-covalent complex of a 150-kDa E subunit and an 85-kDa P subunit, cleaved from a 200-kDa proprotein; In the functional assays, full-length human LAR was overexpressed from adenovirus (AdLAR) or knocked down with siRNA; also called LAR PTP; leukocyte antigen-related (LAR) PTP
Procedure: (§1) C, Lysates from HUVECs stimulated with or without VEGF (20 ng/ml) for 10 min were immunoprecipitated with polyclonal antibodies against anti-cLAR or control goat IgG, followed by immunoblotting with anti-VEGFR2 (top), VEGFR3 (middle) or anti-cLAR antibody (bottom). D, Equal amounts of GST or GST-cLAR fusion protein were immobilized on glutathione-Sepharose beads and then incubated with HUVEC lysates containing equal amount of protein. GST or GST-cLAR-associated proteins were analyzed by Western blotting using anti-IGF-1Rβ antibody. The same membrane was reprobed with anti-GST antibody (E), anti-VEGFR2 (F, top) or anti-VEGFR3 (F, bottom) antibodies.

[2] = molecular target: B1; test: GST pulldown from HUVEC lysates, Western blot with anti-VEGFR3
Procedure: as §1

[3] = molecular target: T2, VEGFR2 (human, UniProt P35968 20-1356); test: GST pulldown from HUVEC lysates, Western blot with anti-VEGFR2
T2 construct: Endogenous protein in HUVEC lysates, with or without VEGF treatment (20 ng/ml, 10 min)
Procedure: as §1

T2 sequence (P35968 20-1356 limits assumed): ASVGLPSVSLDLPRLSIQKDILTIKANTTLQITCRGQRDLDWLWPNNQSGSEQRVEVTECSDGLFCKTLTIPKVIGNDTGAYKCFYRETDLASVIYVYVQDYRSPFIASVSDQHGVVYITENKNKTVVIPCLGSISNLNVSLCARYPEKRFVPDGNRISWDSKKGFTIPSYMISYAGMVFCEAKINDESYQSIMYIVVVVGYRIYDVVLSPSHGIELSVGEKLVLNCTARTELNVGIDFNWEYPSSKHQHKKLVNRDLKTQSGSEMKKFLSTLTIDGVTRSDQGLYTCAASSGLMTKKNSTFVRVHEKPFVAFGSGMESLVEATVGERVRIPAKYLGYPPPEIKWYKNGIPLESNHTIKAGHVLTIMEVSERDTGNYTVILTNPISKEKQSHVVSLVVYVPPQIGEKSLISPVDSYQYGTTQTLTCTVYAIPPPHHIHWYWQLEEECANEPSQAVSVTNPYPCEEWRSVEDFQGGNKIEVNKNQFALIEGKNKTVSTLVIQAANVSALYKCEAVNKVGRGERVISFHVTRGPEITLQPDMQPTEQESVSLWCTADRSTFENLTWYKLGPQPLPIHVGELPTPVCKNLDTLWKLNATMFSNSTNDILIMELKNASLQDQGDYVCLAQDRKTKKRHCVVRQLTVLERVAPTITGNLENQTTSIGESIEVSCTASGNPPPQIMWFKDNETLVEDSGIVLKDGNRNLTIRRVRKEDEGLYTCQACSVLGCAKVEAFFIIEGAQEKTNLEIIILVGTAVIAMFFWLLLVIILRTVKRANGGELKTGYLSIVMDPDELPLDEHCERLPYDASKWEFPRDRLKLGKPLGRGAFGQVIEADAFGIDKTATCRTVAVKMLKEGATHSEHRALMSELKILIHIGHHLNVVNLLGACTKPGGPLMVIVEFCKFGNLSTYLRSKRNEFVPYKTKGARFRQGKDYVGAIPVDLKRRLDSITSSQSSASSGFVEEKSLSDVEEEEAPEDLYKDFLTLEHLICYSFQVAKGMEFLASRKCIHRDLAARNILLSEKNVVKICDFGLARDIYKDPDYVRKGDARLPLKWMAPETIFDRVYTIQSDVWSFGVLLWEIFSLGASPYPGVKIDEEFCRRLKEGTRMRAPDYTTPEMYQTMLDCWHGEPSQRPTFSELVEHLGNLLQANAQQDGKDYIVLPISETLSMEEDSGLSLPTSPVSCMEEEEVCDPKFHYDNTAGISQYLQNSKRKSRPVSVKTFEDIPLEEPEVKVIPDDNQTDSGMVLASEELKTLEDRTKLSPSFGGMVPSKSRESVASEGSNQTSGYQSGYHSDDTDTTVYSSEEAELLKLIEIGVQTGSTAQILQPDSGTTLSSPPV

Binder	binding result [1]	binding result [2]	binding result [3]
B1	no binding	–	–
GST-cLAR fusion protein (other, UniProt P10586 1285-1907, looked up, domain: cytoplasmic LAR (cLAR); The fusion was immobilized on glutathione-Sepharose beads and incubated with HUVEC lysates; not shown: Glutathione-S-transferase (GST) tag) KRKRTHSPSSKDEQSIGLKDSLLAHSSDPVEMRRLNYQTPGMRDHPPIPITDLADNIERLKANDGLKFSQEYESIDPGQQFTWENSNLEVNKPKNRYANVIAYDHSRVILTSIDGVPGSDYINANYIDGYRKQNAYIATQGPLPETMGDFWRMVWEQRTATVVMMTRLEEKSRVKCDQYWPARGTETCGLIQVTLLDTVELATYTVRTFALHKSGSSEKRELRQFQFMAWPDHGVPEYPTPILAFLRRVKACNPLDAGPMVVHCSAGVGRTGCFIVIDAMLERMKHEKTVDIYGHVTCMRSQRNYMVQTEDQYVFIHEALLEAATCGHTEVPARNLYAHIQKLGQVPPGESVTAMELEFKLLASSKAHTSRFISANLPCNKFKNRLVNIMPYELTRVCLQPIRGVEGSDYINASFLDGYRQQKAYIATQGPLAESTEDFWRMLWEHNSTIIVMLTKLREMGREKCHQYWPAERSARYQYFVVDPMAEYNMPQYILREFKVTDARDGQSRTIRQFQFTDWPEQGVPKTGEGFIDFIGQVHKTKEQFGQDGPITVHCSAGVGRTGVFITLSIVLERMRYEGVVDMFQTVKTLRTQRPAMVQTEDQYQLCYRAALEYLGSFDHYAT	–	no binding	no binding
